Laboratory results: the supplement of paper PMC9170038

Tested on: MS2 coat protein
Assay: apparent KD of MS2 coat protein; designed switch direction (-1 OFF switch, 1 ON switch): -1; higher = weaker reporter binding
Procedure, shortened: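 On Illumina chips, designed RNA switches with common flanks were made by stalled E. coli RNA polymerase. Titrations with SNAP-549-labelled MS2 coat protein, doubling from 0.7 or 1.5 nM to 3 µM, were done with no input, with 200 uM small-molecule ligand, or with an oligonucleotide input. Apparent KD is the median per design over clusters, from curve fits of normalised cluster fluorescence.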

[1] = input ligand: microRNA oligo, concentration not stated
[2] = Eterna round: R95, input ligand: microRNA oligo, concentration not stated
[3] = Eterna round: R95, input ligand: FMN 200 uM
[4] = Eterna round: R95, input ligand: none

Row | Sequence | apparent KD of MS2 coat protein (input ligand: FMN 200 uM) [µM] | apparent KD of MS2 coat protein (input ligand: none) [µM] | apparent KD of MS2 coat protein [1] [µM] | apparent KD of MS2 coat protein [2] [µM] | apparent KD of MS2 coat protein [3] [µM] | apparent KD of MS2 coat protein [4] [µM]
1 | AAACGGAUAGGAUAUACUUGAGGAUCACCCAAGUGAUCAGUCCCGGGAAUUCCCGCAAGUAGAAGGAUCAAAAG [Arisrevexe] (Eterna round: R97, puzzle: Exclusion 3) | 1.12 | 0.162 | – | – | – | –
2 | ACAUGUCAUUGAGGAUAUUGCACACAUGAGGAUCACCCAUGUAUACGGAUGCUCUUCCGUGAGUUCGAGAAGGCGAUGUACAUU [Ex NG2 #90] (Eterna round: R96, puzzle: Exclusion NG 2) | 0.0713 | 0.0607 | 0.0386 | – | – | –
3 | GUUAGUUAAGGAUAUACUGGGAGCUGCGGCGUCUCGCCGCAACAUGAGGAUCACCCAUGUAGAAGGUGGCCAUU [JL ViennaUCT Enbibi mod 4] (puzzle: Exclusion 2) | – | – | – | 0.64 | – | –
4 | AAAAGUUGGUAAGGAUAUCCCACAUUAUUCUGACCCGUGCAAGCUACAUGAGGAUCACCCAUGUGGGAGAAGGUGCGUUAAAGA [Zatiisor] (Eterna round: R96, puzzle: Exclusion NG 2) | 0.209 | 0.0788 | 0.0551 | – | – | –
5 | CCGGCUUAGGAGGAUAUAGGAGUCGAUAGACACCUAGAAGGCCUGACAUGAGGAUCACCCAUGUGUCCUACCGG [Fiskers Ex 6 - 98] (puzzle: Exclusion 6) | – | – | – | 0.0142 | 0.0312 | 0.0165
6 | GUUGUUUAUGUAGGAUAUGCCAGGCGAGCCUAAGCAGAAGGACAUGAGGAUCACCCAUGUAUUGCGGUCUGCGUUCAGAUCGCU [salish99_ExNG1_r4_017] (Eterna round: R96, puzzle: Exclusion NG 1) | 0.0635 | 0.0237 | 0.0183 | – | – | –
7 | UGUCAGUCAGGAUAUGCAUACGUAGACAUGAGGAUCACCCAUGUGACGUGGGCCUGGUGUGUAGAAGGGACGAACA [EX5 #80] (Eterna round: R97, puzzle: Exclusion 5) | 0.0485 | 0.0195 | – | – | – | –
8 | AGUAGGAGAGGAUAUACAUGAAGUCGAAAGACUUCAACUCAACAUGAGGAUCACCCAUGUAGAAGGCUCCUACA [Omei Ex2 BD A6] (Eterna round: R97, puzzle: Exclusion 2) | 0.132 | 0.0258 | – | – | – | –
9 | AAGUACCGUCACGAUAGUGAUGGUACAGCAAGCAGUGAAACAUGAGGAUCACCCAUGUCCUCAAUUGCUCGUCUUAU [Sensor 3 - 78] (puzzle: Sensor v3, turn-off variant 2) | – | – | – | 0.211 | 0.0433 | 0.0445
10 | UAAUUGAUUAAUAAAUUAUACAUGAGGAUCACCCAUGUAGAUCCUACGUGCCAUUUAAGUAGCUCGUCUUAUUAUUA [Sensor-V1 #64] (Eterna round: R97, puzzle: Sensor, turn-off variant 1) | 0.142 | 0.228 | – | – | – | –
11 | AAGAAGAAACAAGCUUUUUGCACGUCAUAUAGUGACGCAACAUGAGGAUCACCCAUGUAUAGGGUGGGAAAGGAUAG [JR_SV3TOV2_Sub047] (puzzle: Sensor v3, turn-off variant 2) | – | – | – | 0.07 | 0.338 | 0.423
12 | AAGAAGAUCAGAGGAUAUGGAGCUGAAACGGCGCUAGAAGGCUGUCUAGUGUAACAUGAGGAUCACCCAUGUAGGGACCUCUAA [EX ng 1 4.3] (Eterna round: R96, puzzle: Exclusion NG 1) | 0.874 | 0.884 | 0.795 | – | – | –
13 | UAACCUCGCGUCAGGAUAUGCGAGGACUGUGACGUGCAGAAGGGACAUGAGGAUCACCCAUGUGAAAGAAUUAA [Acecequ] (puzzle: Brourd's mod of Exclusion 4) | – | – | – | 0.0203 | – | –
14 | UGUGCAACAGGAUAUAUGUGGCGUCCGUGAGGACGAAGGUUACAUGAGGAUCACCCAUGUAGAAGGGUUGUACU [Mat - Exclusion 2 - JL Mod - D24] (Eterna round: R97, puzzle: Exclusion 2) | 0.218 | 0.0685 | – | – | – | –
15 | UAAUUGUGAGGAUAUUCGUUGUUCUCGGAGACGAGAAUAACGGAGAAGGCACAUGAGGAUCACCCAUGUUCCUU [Mat - Exclusion 4 - JL Mod - D13] (Eterna round: R97, puzzle: Exclusion 4) | 0.0984 | 0.018 | – | – | – | –
16 | GUGCAACAUGAGGAUCACCCAUGUCAGGAUAUGCGAAUUUCAUCAAAAGAUGAAAUUUGCAGAAGGGACUAUAC [Omei Ex1 A22] (Eterna round: R97, puzzle: Exclusion 1) | 0.0674 | 0.0385 | – | – | – | –
17 | UAUAUAUAGUAAGGAUAUGUAUUAAUUUUAUCAACAGAAGGUACUGACAUGAGGAUCACCCAUGUUUUAGUGUGGGCAUGUAGA [JMF's solution 92] (Eterna round: R96, puzzle: Exclusion NG 1) | – | – | 0.0652 | – | – | –

Row | Sequence | apparent KD of MS2 coat protein (input ligand: FMN 200 uM) [µM] | apparent KD of MS2 coat protein (input ligand: none) [µM] | apparent KD of MS2 coat protein [1] [µM] | apparent KD of MS2 coat protein [2] [µM] | apparent KD of MS2 coat protein [3] [µM] | apparent KD of MS2 coat protein [4] [µM]
18 | GCUGGCUGAGGAUAUCUAUCCAUGAACAUGAGGAUCACCCAUGUAAACGUGGAGUGAGAUAGAGAAGGCGGGCAGA [EX5 A.13] (Eterna round: R97, puzzle: Exclusion 5) | 0.0136 | 0.0112 | – | – | – | –
19 | AUACAGGAAGGAUAUACAUGAGGAUCACCCAUGUAGGAAAACCUACCAAAAGACCCAAGUAGAAGGUCCGAUAC [jl-ex3-4.74 ViennaUCT mod] (Eterna round: R97, puzzle: Exclusion 3) | 0.0218 | 0.0194 | – | – | – | –
20 | AGUACUAACACGAAAGUGUUAGUACUAUAAGCUUGUGUAACAUGAGGAUCACCCAUGUCCUCAUAAGCUCGUCUUAU [Mat - Sensor v3 - Turn-off var 2 - D100] (puzzle: Sensor v3, turn-off variant 2) | – | – | – | 0.131 | 0.0583 | 0.0612
21 | ACCUCACAUGAGGAUCACCCAUGUCAGGAUAUCUUUUAAAACGCGAAUCGCGUCGCUGAGAGAAGGGACAUUAA [EX1 #21] (Eterna round: R97, puzzle: Exclusion 1) | 0.0996 | 0.0391 | – | – | – | –
22 | GCCGAUUAAGUGAGGAUAUACCUAUGGAUACAUAGGUAGAAGGUACAUGAGGAUCACCCAUGUUCCUCAUCGGC [Fiskers BMX 4 - 10] (puzzle: Brourd's mod of Exclusion 4) | – | – | – | 0.00997 | – | –
23 | UAAUUAGCAAGUAGAUCCGACAUGAGGAUCACCCAUGUUAUCUGAAAGAACGCAGAAUAACUGUGAGCUCGUCUAAA [Sensor-V1 #1] (Eterna round: R97, puzzle: Sensor, turn-off variant 1) | 0.315 | 0.333 | – | – | – | –
24 | GGCACACAUGAGGAUCACCCAUGUGAGGAUAUGUGGCGAUCGUCGAUAGACGAUAGCCACAGAAGGCACAGGCC [Mat - Exclusion 1 - Eli Mod - D21] (Eterna round: R97, puzzle: Exclusion 1) | 0.0232 | 0.0192 | – | – | – | –
25 | UGAUCUUGGGUCAGGAUAUGCUGGUAUUUUUGCCAGCAGAAGGGACAUGAGGAUCACCCAUGUUCUUGGUUUUU [Magic-14] (puzzle: Brourd's mod of Exclusion 4) | – | – | – | 0.0104 | – | –
26 | CGAACCCGAGGAUAUCGUAAACCCGACAUGAGGAUCACCCAUGUCAUCCUCACGGCGCCACGAGAAGGCGGUGUUU [Leinat] (puzzle: Exclusion 5) | – | – | – | 0.0437 | – | –
27 | GUAAAUCAUGUAGGAUAUGCAUAGCAAAGCUAUGCAGAAGGACAUGAGGAUCACCCAUGUCAUUCCGUCUGGAGACAGACGGAA [Mat - Exclusion NG 1 - Mod of JL - D59] (Eterna round: R96, puzzle: Exclusion NG 1) | 0.121 | 0.0322 | 0.022 | – | – | –
28 | GAUUAUGCGAGCUUUAGGGACAUGAGGAUCACCCAUGUUCGUCUUAUUAAUCUAGGUACGCUAACAUACCUAAAUCU [JMF 39] (puzzle: Sensor v3, turn-off variant 1) | – | – | – | 0.0343 | 0.0203 | 0.0206
29 | GAGUGCUUAGGAUAUACAUGAGGAUCACCCAUGUGCUUCAGCUAGGAGACUAGCAUUGGUAGAAGGGAGUACUC [Mod of lroppy 5 - Jieux - Exclusion 3] (Eterna round: R97, puzzle: Exclusion 3) | 0.0242 | 0.0149 | – | – | – | –
30 | ACGCAUUGCCAAAGGUAAUGCGUUACAUGAGGAUCACCCAUGUAGGAUAUGGUAGGCAAAGCUUACCAGAAGGACAUGAUAAUU [Mat - Exclusion NG 3 - Mod of JL - D7] (Eterna round: R96, puzzle: Exclusion NG 3) | 0.219 | 0.057 | 0.04 | – | – | –
31 | CAUAUAGUAGUCAGGAUAUGCGAAUAUAUAAUUAAGUAGAAGGGACAUGAGGAUCACCCAUGUAUAUUGUAAAG [EX-4 Malc #2] (puzzle: Brourd's mod of Exclusion 4) | – | – | – | 0.0261 | 0.0269 | 0.0284
32 | AAAUUAGCAAGUAGGUCCGACAUGAGGAUCACCCAUGUAAUCUGAAAUUACGCUGCACGAAAGUGCGCUCGUCUUAG [Sensor-V1 #11] (Eterna round: R97, puzzle: Sensor, turn-off variant 1) | 0.149 | 0.149 | – | – | – | –
33 | UGUACGAUGCGUGCUGACAUGCGUCGUGCAGCAGGUGGAACAUGAGGAUCACCCAUGUCCUCAUUUGCUCGUCUUGU [SL-sv3-2.10 JL mod] (puzzle: Sensor v3, turn-off variant 2) | – | – | – | 0.14 | 0.0547 | 0.0523
34 | CGGUGCUGAGGAUAUACAUGAGGAUCACCCAUGUGUUCCUGCUAGCGUACUGGCAGAUGUAGAAGGCGGUACUG [JL-ex3-3.44 Brourd mod] (puzzle: Exclusion 3) | – | – | – | 0.0208 | 0.084 | 0.0267
